Experimental data taken from publication doi:10.1101/2024.12.23.630039 (2024).
Read-outs that look alike come from different tables or passages of the source.

Assays:
[1] = molecular target: T1, HLA-B*07:02 heavy chain with β2-microglobulin (MHC-I monomer, peptide groove as the binding site) (human | )
[2] = molecular target: T1, HLA-B*07:02 heavy chain with …; test: predicted/cited value [23]

Row | Binder | Kd [1] | Kd [2]
1 | RPELVRPAL [high-affinity peptide for HLA-B*07:02 (Table 1)] | 4.38 nM | –
2 | RKELVRPAL [temperature-sensitive template peptide for HLA-B*07:02 (RKELVRPAL)] | – | 4120 nM
